Assay results as given in patent US20060002925A1 (ZymoGenetics, published 2006).

Legend:
human IL-17 receptor = biological target: T1, human IL-17 receptor (human, UniProt Q96F46 33-320); experiment: cell-based or functional assay
T1 sequence: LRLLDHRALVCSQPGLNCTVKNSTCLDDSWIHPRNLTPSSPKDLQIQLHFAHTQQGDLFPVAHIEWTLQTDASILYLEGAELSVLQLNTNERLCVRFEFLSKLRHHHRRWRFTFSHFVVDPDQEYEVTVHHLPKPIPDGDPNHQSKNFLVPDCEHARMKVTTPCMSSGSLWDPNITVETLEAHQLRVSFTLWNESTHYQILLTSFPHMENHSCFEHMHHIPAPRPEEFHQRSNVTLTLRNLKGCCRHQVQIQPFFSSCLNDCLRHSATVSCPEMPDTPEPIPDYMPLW

human ZcytoR14 = biological target: T2, human ZcytoR14 (human, UniProt Q8NAC3 21-791); experiment: cell-based or functional assay
T2 sequence: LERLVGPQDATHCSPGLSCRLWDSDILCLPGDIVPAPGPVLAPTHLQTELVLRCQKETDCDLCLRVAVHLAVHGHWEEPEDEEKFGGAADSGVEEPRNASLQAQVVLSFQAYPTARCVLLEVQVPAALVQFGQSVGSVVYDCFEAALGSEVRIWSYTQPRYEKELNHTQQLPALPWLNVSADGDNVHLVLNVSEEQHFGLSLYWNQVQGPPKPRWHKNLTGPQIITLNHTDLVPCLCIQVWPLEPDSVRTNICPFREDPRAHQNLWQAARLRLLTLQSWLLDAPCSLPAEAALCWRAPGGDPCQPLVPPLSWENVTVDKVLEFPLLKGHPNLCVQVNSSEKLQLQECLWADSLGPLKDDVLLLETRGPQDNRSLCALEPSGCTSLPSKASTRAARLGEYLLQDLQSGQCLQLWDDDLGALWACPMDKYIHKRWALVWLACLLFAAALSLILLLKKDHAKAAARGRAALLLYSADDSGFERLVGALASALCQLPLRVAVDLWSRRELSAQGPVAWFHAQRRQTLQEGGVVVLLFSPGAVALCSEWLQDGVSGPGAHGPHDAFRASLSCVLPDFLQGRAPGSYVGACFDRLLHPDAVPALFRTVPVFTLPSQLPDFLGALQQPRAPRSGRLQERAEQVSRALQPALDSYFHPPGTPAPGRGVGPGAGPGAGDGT

B1: human IL-17F (ligand)
chain: RKIPKVGHTFFQKPESCPPVPGGSMKLDIGIINENQRVSMSRNIESRSTSPWNYTVTWDPNRYPSEVVQAQCRNLGCINAQGKEDISMNSVPIQQETLVVRRKHQGCSVSFQLEKVLVTVGCTCVTPVIHHVQ
modifications: biotinylated (Example 10) or 125I-radiolabeled by the iodobead method (Example 11) when used as tracer; unlabeled as cold competitor
EC50 of ap1/nfkb luciferase activation in nih3t3/kz142.8/IL-17R cells (human IL-17 receptor): 12.4 ng/mL | EC50 of ap1/nfkb luciferase activation in the hIL-17RCX1 recombinant line (human ZcytoR14): 0.61 ng/mL | fold more potent EC50 in the recombinant line against the parental line (human ZcytoR14): 17 fold
